The results in this text go back to article PMC11882444 (2025).

The experiment addresses LHC (LSD1-HDAC-CoREST complex) (Homo sapiens, UniProt O60341, UM171 and InsP6 present). Put plainly: dose-response titration of fluorescein-LHC.

B1: KBTBD4 (protein)
chain: MKGGNADSWQREKLASMESPEEPGASMDENYFVNYTFKDRSHSGRVAQGIMKLCLEEELFADVTISVEGREFQLHRLVLSAQSCFFRSMFTSNLKEAHNRVIVLQDVSESVFQLLVDYIYHGTVKLRAEELQEIYEVSDMYQLTSLFEECSRFLARTVQVGNCLQVMWLADRHSDPELYTAAKHCAKTHLAQLQNTEEFLHLPHRLLTDIISDGVPCSQNPTEAIEAWINFNKEEREAFAESLRTSLKEIGENVHIYLIGKESSRTHSLAVSLHCAEDDSISVSGQNSLCHQITAACKHGGDLYVVGGSIPRRMWKCNNATVDWEWCAPLPRDRLQHTLVSVPGKDAIYSLGGKTLQDTLSNAVIYYRVGDNVWTETTQLEVAVSGAAGANLNGIIYLLGGEENDLDFFTKPSRLIQCFDTETDKCHVKPYVLPFAGRMHAAVHKDLVFIVAEGDSLVCYNPLLDSFTRLCLPEAWSSAPSLWKIASCNGSIYVFRDRYKKGDANTYKLDPATSAVTVTRGIKVLLTNLQFVLA
For B1, the dissociation constant (Kd) was 13 nM.

What is called Kd is the constant that tells how readily two partners part at equilibrium. Read a high Kd as weaker binding.
